Publication doi:10.1101/2020.07.13.201285 (bioRxiv, 2020)

Molecular target: the molecule itself
Assay: cross-linking

B1: recombinant human glutamine:fructose-6-phosphate amidotransferase 2 with C-terminal HisTag (rhGFAT2-his) (enzyme, UniProt O94808 2-682, looked up)
chain: CGIFAYMNYRVPRTRKEIFETLIKGLQRLEYRGYDSAGVAIDGNNHEVKERHIQLVKKRGKVKALDEELYKQDSMDLKVEFETHFGIAHTRWATHGVPSAVNSHPQRSDKGNEFVVIHNGIITNYKDLRKFLESKGYEFESETDTETIAKLIKYVFDNRETEDITFSTLVERVIQQLEGAFALVFKSVHYPGEAVATRRGSPLLIGVRSKYKLSTEQIPILYRTCTLENVKNICKTRMKRLDSSACLHAVGDKAVEFFFASDASAIIEHTNRVIFLEDDDIAAVADGKLSIHRVKRSASDDPSRAIQTLQMELQQIMKGNFSAFMQKEIFEQPESVFNTMRGRVNFETNTVLLGGLKDHLKEIRRCRRLIVIGCGTSYHAAVATRQVLEELTELPVMVELASDFLDRNTPVFRDDVCFFISQSGETADTLLALRYCKDRGALTVGVTNTVGSSISRETDCGVHINAGPEIGVASTKAYTSQFISLVMFGLMMSEDRISLQNRRQEIIRGLRSLPELIKEVLSLEEKIHDLALELYTQRSLLVMGRGYNYATCLEGALKIKEITYMHSEGILAGELKHGPLALIDKQMPVIMVIMKDPCFAKCQNALQQVTARQGRPIILCSKDDTESSKFAYKTIELPHTVDCLQGILSVIPLQLLSFHLAVLRGYDVDFPRNLAKSVTVE
stoichiometry N: 4
